Measured values from US20210253716A1 (Regeneron, published 2021).
Residue numbers refer to the chain shown, from its start.

T1: full length human ACVR1 (R206H) on HEK293/BRE-luc/hACVR1-R206H-clone H2 cells (human, UniProt Q04771 21-509)
T1 sequence: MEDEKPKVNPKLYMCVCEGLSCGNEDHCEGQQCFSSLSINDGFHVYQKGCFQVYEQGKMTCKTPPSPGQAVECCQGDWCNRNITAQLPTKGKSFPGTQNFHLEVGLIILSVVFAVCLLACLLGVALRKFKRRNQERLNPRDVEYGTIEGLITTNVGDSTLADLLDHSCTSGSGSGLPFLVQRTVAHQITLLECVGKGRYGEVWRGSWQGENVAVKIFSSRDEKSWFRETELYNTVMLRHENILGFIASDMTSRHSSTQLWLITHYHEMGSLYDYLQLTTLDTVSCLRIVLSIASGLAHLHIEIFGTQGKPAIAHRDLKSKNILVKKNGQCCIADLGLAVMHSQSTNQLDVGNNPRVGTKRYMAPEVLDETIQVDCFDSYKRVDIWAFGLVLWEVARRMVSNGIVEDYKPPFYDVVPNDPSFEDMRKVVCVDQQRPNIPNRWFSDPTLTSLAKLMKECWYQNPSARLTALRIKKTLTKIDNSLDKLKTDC

T2: human ACVR1 extracellular domain expressed with a C-terminal myc-myc-hexahistidine tag (human)
T2 construct: also called hACVR1-MMH
T2 chain: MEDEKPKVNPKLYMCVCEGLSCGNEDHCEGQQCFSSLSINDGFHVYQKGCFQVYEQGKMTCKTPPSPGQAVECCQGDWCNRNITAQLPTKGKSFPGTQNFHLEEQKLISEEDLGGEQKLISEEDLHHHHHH

T3: human ACVR1 extracellular domain expressed with a C-terminal mouse IgG2a Fc tag (human)
T3 construct: also called hACVR1-mFc
T3 chain: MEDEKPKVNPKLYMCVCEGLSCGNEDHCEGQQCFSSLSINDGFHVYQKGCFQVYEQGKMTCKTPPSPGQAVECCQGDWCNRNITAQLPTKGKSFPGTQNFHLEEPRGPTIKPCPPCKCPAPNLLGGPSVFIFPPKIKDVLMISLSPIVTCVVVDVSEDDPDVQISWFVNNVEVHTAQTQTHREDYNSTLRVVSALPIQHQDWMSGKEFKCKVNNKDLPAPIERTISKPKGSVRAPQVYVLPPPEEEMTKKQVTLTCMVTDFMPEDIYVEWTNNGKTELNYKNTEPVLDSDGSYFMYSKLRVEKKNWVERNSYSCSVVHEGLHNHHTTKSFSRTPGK

T4: mouse ACVR1 extracellular domain expressed with a C-terminal myc-myc-hexahistidine tag (mouse)
T4 construct: also called mACVR1-MMH; mACVR1-mmh
T4 chain: T2 chain with M1V, P10Q

B1: mAb27405 (antibody, human IgG4 S228P, kappa, V domains shown)
VH: QVQLVESGGGLVKPGGSLRLSCAASGFTFSDYYMSWIRQAPGKGLEWVSYISRTGSTKYYADSVKGRFTISRDNAKNSLNLQMSSLRAEDTAVYFCAREPLQHWGQGTLVTVSS
VL: KIVLTQTPLSSPVTLGQPASISCRSSQSLVHSDGDTYLSWLHQRPGQPPRLLIYTISNRLSGVPDRFSGSGAGTDFTLKISRVEAEDVGVYYCMQGTQFPALTFGGGTKVEIKR
B2: mAb27404 (antibody, human IgG4 S228P, kappa, V domains shown)
VH: B1 VH with V48I, Y50F
VL: B1 VL with K1N, I2V, L9I, T14I, I56V, L60V
B3: mAb27400 (antibody, human IgG4 S228P, kappa, V domains shown)
VH: EMQLVESGGGLVQPGGSLKVSCAASGFTLSDSSIHWVRQASGKGLEWIGRIRSKPYSYATAYAASVKGRFTISRDDSKNTAFLQMSGLKTEDTAVYYCTGGDDFWGQGTLVTVSS
VL: DIQMTQSPSTLSASVGDRITITCRASQSISTWLAWYQQKPGKAPKLLIYKASSLEGGVPSRFSGSGSGTDFTLTISSLQPDDFATYYCQQYNTYWTFGQGTKVEIKR

What was measured:
[1] = target: T1, full length human ACVR1 (R206H) on …; assay: cell-based or functional assay
[2] = target: T2, human ACVR1 extracellular domain …; assay: SPR (Biacore), mAb captured, 37 C
Method: (§1) Equilibrium dissociation constants (KD) for ACVR1 binding to purified anti-ACVR1 monoclonal antibodies were determined using a real-time surface plasmon resonance biosensor (SPR-Biacore), Biacore 4000. All binding studies were performed in 10 mM HEPES, 150 mM NaCl, 3 mM EDTA, and 0.05% v/v surfactant Tween-20, pH 7.4 (HBS-ET) running buffer at 25° C. and 37° C. The Biacore CM5 sensor surface was first derivatized by amine coupling with a monoclonal mouse anti-human Fc antibody (GE, #BR-1008-39 or REGN2567) to capture anti-ACVR1 monoclonal antibodies. […] ACVR1 reagents were then injected over anti-human Fc captured anti-ACVR1 monoclonal antibody surface for 2.5-3 minutes at a flow rate of 30 μL/minute, while the dissociation of monoclonal antibody bound ACVR1 reagent was monitored for 10-15 minutes in HBS-ET running buffer. Kinetic association rate constant (kₐ) and dissociation rate constant (kd) were determined by fitting the real-time sensorgrams to a 1:1 binding model using Scrubber 2.0c curve-fitting software. Binding dissociation equilibrium constants (KD) and dissociative half-lives (t½) were calculated from the kinetic rate constants as: […]

[3] = target: T3, human ACVR1 extracellular domain …; assay: SPR (Biacore), mAb captured, 37 C
Method: as §1

[4] = target: T4, mouse ACVR1 extracellular domain …; assay: SPR (Biacore), mAb captured, 37 C
Method: as §1

[5] = target: T2, human ACVR1 extracellular domain …; assay: SPR (Biacore), mAb captured, 25 C
Method: as §1

[6] = target: T3, human ACVR1 extracellular domain …; assay: SPR (Biacore), mAb captured, 25 C
Method: as §1

[7] = target: T4, mouse ACVR1 extracellular domain …; assay: SPR (Biacore), mAb captured, 25 C
Method: as §1

[8] = target: T1, full length human ACVR1 (R206H) on …; assay: flow cytometry, 70 nM antibody, HEK293/hACVR1-R206H cells
Method: Cells were fixed using BD CytoFix™ (Becton Dickinson, #554655) and analyzed on either Hypercyt® or IQue® Flow Cytometers (Intellicyt®). Unstained and secondary antibody alone controls were also tested for all cell lines. The results were analyzed using ForeCyt® (IntelliCyt®) software to determine the geometric means of fluorescence for viable cells and binding ratios were calculated by normalizing the geometric mean value of the test condition by the geometric mean value of the corresponding unstained cells.

[9] = target: T2, human ACVR1 extracellular domain …; assay: SPR (Biacore), mAb captured, 37 C; 37 C
Method: as §1

Binder	% Inhibition, BRE-luc reporter, 2 nM hBMP7 [1] [%]	IC50 [M], BRE-luc reporter, 2 nM hBMP7 [1] [M]	900 nM or 100 nM Ag Bound (RU) [2] [RU]	Kd [2] [nM]	koff [2] [s⁻¹]	kon [2] [M⁻¹ s⁻¹]	t½ [2] [min]	100 nM Ag Bound (RU) [3] [RU]	Kd [3] [nM]	koff [3] [s⁻¹]	kon [3] [M⁻¹ s⁻¹]	t½ [3] [min]	900 nM or 100 nM Ag Bound (RU) [4] [RU]	100 nM Ag Bound (RU) [6] [RU]	Kd [6] [nM]	koff [6] [s⁻¹]	kon [6] [M⁻¹ s⁻¹]	t½ [6] [min]	900 nM or 100 nM Ag Bound (RU) [7] [RU]	MFI - Normalized to Unstained Control [8] [fold]	also measured
B1	107	7.6e-10	52	44.4	0.00528	119000	2.2	185	3.18	0.000742	233000	16	2	142	1.9	0.000201	106000	57	0	1560	900 nM or 100 nM Ag Bound (RU) [5]: 37 RU; Kd [5]: 21 nM; koff [5]: 0.00147 s⁻¹; kon [5]: 69900 M⁻¹ s⁻¹; t½ [5]: 8 min; binding result [7]: no binding (tested: 900 nM or 100 nM)
B2	109	8.8e-10	67	7.63	0.00183	240000	6	216	1.11	0.000338	303000	34	4	160	0.444	8.76e-05	198000	132	1	1870	900 nM or 100 nM Ag Bound (RU) [5]: 46 RU; Kd [5]: 4.49 nM; koff [5]: 0.000446 s⁻¹; kon [5]: 99200 M⁻¹ s⁻¹; t½ [5]: 26 min; binding result [7]: no binding (tested: 900 nM or 100 nM)
B3	96	2e-09	–	–	–	–	–	68	12.8	0.000163	12700	71	2	24	11.9	0.000142	11900	81	-3	840	Kd [9]: 49 nM; koff [9]: 0.000476 s⁻¹; kon [9]: 9710 M⁻¹ s⁻¹; t½ [9]: 24 min
